Assay results published in publication PMC2945410 (Journal of molecular biology, 2010).

Molecular target: the molecule itself
Test: SEC

B1: EAL domain of TBD1265 from Thiobacillus denitrificans (aa 487-758) (domain or fragment)
chain: not shown
modifications: Se-Met substituted (for the crystals)
stoichiometry N: 2
